In article PMC3411048 (The Journal of Biological Chemistry, 2012):
Square brackets hold non-standard residues; d marks the D form. Ends that are not written are not given here. pY = N[C@@H](Cc1ccc(OP(=O)(O)O)cc1)C(=O)O

Legend:
[1] = system: N-SH2 domain of the phosphatase; details: phosphorylated tyrosine of N-terminal portion; ref [36]; cited from earlier work
SHP2 = details: ref [11], [36]; cited from earlier work
[2] = Phosphopeptide array binding analysis; details: Two Sample Logo, peptide array, GST-tagged N-SH2 domain 1 μg/ml

Row | Molecule | phosphopeptide positions mediating binding specificity (from pY) [2] | also measured
1 | GGGGDIT[pY]ADLNLPKGKK [N-terminal portion of the BTAM peptide] | – | binding to N-SH2 domain [1]: known to bind specifically the N-SH2 domain of the phosphatase
2 | GGGGDIT(pY)ADLNLPKGKKPAPQAAEPNNHTE(pY)ASIQTS [BTAM peptide] | – | activation of SHP2 (SHP2): previously demonstrated to activate SHP2
3 | wild-type domain: isolated wild-type N-SH2 domain (residues 6–103), polyHis- or GST-tagged (protein, left off: polyHis, end not stated, kept) WFHPNITGVEAENLLLTRGVDGSFLARPSKSNPGDFTLSVRRNGAVTHIKIQNTGDYYDLYGGEKFATLAELVQYYMEHHGQLKEKNGDVIELKYPLN | −2, −1, +1, +2, and +3 from the phosphotyrosine | –
4 | N-SH2^Lys76 (protein, left off: GST, end not stated, kept) WFHPNITGVEAENLLLTRGVDGSFLARPSKSNPGDFTLSVRRNGAVTHIKIQNTGDYYDLYGGEKFATLAKLVQYYMEHHGQLKEKNGDVIELKYPLN | Those positions were found to bear the highest information content | –
5 | N-SH2^Asp62 (protein, left off: polyHis, end not stated, kept) WFHPNITGVEAENLLLTRGVDGSFLARPSKSNPGDFTLSVRRNGAVTHIKIQNTGDDYDLYGGEKFATLAELVQYYMEHHGQLKEKNGDVIELKYPLN | Those positions were found to bear the highest information content | –
6 | N-SH2^Cys63 (protein, left off: polyHis, end not stated, kept) WFHPNITGVEAENLLLTRGVDGSFLARPSKSNPGDFTLSVRRNGAVTHIKIQNTGDYCDLYGGEKFATLAELVQYYMEHHGQLKEKNGDVIELKYPLN | Those positions were found to bear the highest information content | –
